Results from US20140187616A1.

Biological target: Drosophila olf186-F-RB (Drosophila) (UniProt Q9U6B8)
Test: cell-based or functional assay

Sequence of UniProt Q9U6B8 (Q9U6B8 whole entry): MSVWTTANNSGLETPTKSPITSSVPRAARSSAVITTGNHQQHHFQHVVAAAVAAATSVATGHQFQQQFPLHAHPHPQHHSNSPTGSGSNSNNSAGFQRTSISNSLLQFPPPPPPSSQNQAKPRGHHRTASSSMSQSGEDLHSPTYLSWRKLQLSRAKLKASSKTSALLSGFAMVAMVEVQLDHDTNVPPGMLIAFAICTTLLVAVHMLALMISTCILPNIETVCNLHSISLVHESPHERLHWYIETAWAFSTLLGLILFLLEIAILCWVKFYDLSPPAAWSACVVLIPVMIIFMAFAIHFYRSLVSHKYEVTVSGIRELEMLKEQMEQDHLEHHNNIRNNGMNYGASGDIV

Substance: Drosophila Stim (from UniProt P83094 24-570)
- CRAC current density (whole-cell patch clamp, cotransfected S2 cells): 8 fold
